The results in this text go back to patent publication US20200239575A1 (UNIVERSITY OF UTAH RESEARCH FOUNDATION, published 2020).

A value given as a limit tells only on which side of the number the result lay.

As a reminder, the Kd is a measure of binding affinity in units of concentration. Higher therefore signals weaker binding.

In assay [1] the target is T1, programmed death-1 receptor (PD-1), mouse, on cells (mouse, UniProt Q02242 25-288).
T1 sequence (looked up): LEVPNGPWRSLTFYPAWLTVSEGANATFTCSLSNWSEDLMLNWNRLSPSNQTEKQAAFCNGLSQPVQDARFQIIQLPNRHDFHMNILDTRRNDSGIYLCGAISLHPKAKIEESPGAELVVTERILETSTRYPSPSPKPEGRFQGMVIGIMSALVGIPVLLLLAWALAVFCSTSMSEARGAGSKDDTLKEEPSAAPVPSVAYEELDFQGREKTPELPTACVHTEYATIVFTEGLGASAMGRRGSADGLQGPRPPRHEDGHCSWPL
Briefly: cell-based or functional assay.

Assay [2] deals with T1, programmed death-1 receptor (PD-1), …. Briefly: flow cytometry, 4 °C 30 min, primary B cells (FIG. 8d). (In flow cytometry, cells or beads pass a laser one at a time.)
The target is the same in assay [3]. Briefly: flow cytometry, 4 °C 30 min, primary T cells (FIG. 8c).
For assay [4] the target is unchanged. Briefly: flow cytometry, 37 °C 30 min, primary B cells (FIG. 8f).
The target is the same in assay [5]. Kind of assay: flow cytometry, 37 °C 30 min, primary T cells (FIG. 8e).
The target is the same in assay [6]. Kind of assay: flow cytometry, 4 °C 30 min, EL4 against B16 cells (FIG. 10c).
Assay [7] shares this target. Briefly: flow cytometry, 37 °C 30 min, EL4 against B16 cells (FIG. 10e).
Assay [8] has the same target. Kind of assay: flow cytometry, EL4 cells, competitor PD-L1-Fc 500 nM, 4 °C (FIG. 8g).
For assay [9] the target is unchanged. Briefly: flow cytometry, binding and uptake by EL4 against B16 cells (FIG. 4B).
The target is the same in assay [10]. Briefly: flow cytometry, EL4 cells, competitor PD-L1-Fc 500 nM, 37 °C (FIG. 8g).
Assay [11] shares this target. Kind of assay: flow cytometry dose-response on 1 million EL4 cells, 4 °C 30 min, Alexa Fluor 647-labelled; EC50 of the PD-1^+ fraction taken as Kd (FIG. 10d).
For assay [12] the target is unchanged. Briefly: flow cytometry, Alexa Fluor 647-labelled ABD-PE, 4 °C 30 min, primary T cells, primary B cells, EL4 and B16 cells.
The next assay concerns the target T2, mouse serum albumin (mouse, UniProt P07724 25-608).
T2 construct: also called MSA; mouse albumin
Briefly: native PAGE of a 1-to-1 mixture (FIG. 14a).

For the next assay, the target named is T3, human serum albumin (human, UniProt P02768 25-609).
T3 construct: also called HSA
Kind of assay: native PAGE of a 1-to-1 mixture (FIG. 14b).

B1: αPD-1-ABD-PE (other)
chain: HHHHHHGGGGSEVQLQESGPGLVKPSQSLSLTCSVTGYSITSSYRWNWIRKFPGNCLEWMGYINSAGISNYNPSLKRRISITRDTSKNQFFLQVNSVTTEDAATYYCARSDNMGTTPFTYWGQGTLVTVSSGGGGSGGGGSGGGGSDIVMTQGTLPNPVPSGESVSITCRSSKSLLYSDGKTYLNWYLQRPGQSPQLLIYWMSTRASGVSDRFSGSGSGTDFTLKISGVEAEDVGIYYCQQGLEFPTFGCGTKLELKGGGGSGGGGSGGGGSLAEAKVLANRELDKYGVSDFYKRLINKAKTVEGVEALKLHILAALPGGGGSGGGGSGGGGSRHRQPRGWEQLPTGAEFLGDGGDVSFSTRGTQNWTVERLLQAHRQLEERGYVFVGYHGTFLEAAQSIVFGGVRARSQDLDAIWRGFYIAGDPALAYGYAQDQEPDARGRIRNGALLRVYVPRSSLPGFYRTSLTLAAPEAAGEVERLIGHPLPLRLDAITGPEEEGGRLETILGWPLAERTVVIPSAIPTDPRNVGGDLDPSSIPDKEQAISALPDYASQPGKPPREDLK
modifications: Alexa Fluor 647 NHS ester label in the flow cytometry assays (sites not given)
notes: Order NH2-HisTag-GGGGS-VH-(GGGGS)3-VL-(GGGGS)3-ABD-(GGGGS)3-PE; made in E. coli Shuffle T7; theoretical molecular weight 57.9 kDa; also called the immunotoxin; the toxin
For the molecule B1, in [1], the “IC50 of cytotoxicity to EL4 cells (FIG. 2C)” value stood at 1.1 nM; the “IC50 of cytotoxicity to PD-1^+ primary B cells (72 h, live cell count by flow cytometry)” value was 0.47 nM; the “IC50 of cytotoxicity to PD-1^+ primary T cells (72 h, live cell count by flow cytometry)” value is 0.43 nM; the “IC50 of cytotoxicity to wildtype EL4 cells (MTS assay, 72 h)” value was 0.64 nM. In assay [1], the “fold toxicity, wildtype EL4 cells against PD-1 knockout EL4 cells” value is greater than 1000 fold. Further, in assay [2], the “fold MFI, PD-1^+ over PD-1^- primary B cells” value was greater than 5 fold. Besides, the “fold MFI, PD-1^+ over PD-1^- primary T cells” value in assay [3] was greater than 4 fold. Besides, in [4], the “fold MFI (binding and uptake), PD-1^+ over PD-1^- primary B cells” value is greater than 7 fold. The “fold MFI (binding and uptake), PD-1^+ over PD-1^- primary T cells” value in assay [5] is greater than 8 fold. Also, the “fold MFI, EL4 over B16 cells” value in assay [6] was greater than 3 fold. Besides, the “fold MFI (binding and uptake), EL4 over B16 cells” value in [7] is roughly 12 fold. Also, the “fold decrease of MFI with PD-L1-Fc against αPD-1-ABD-PE alone” value in assay [8] was roughly 8 fold. Also, the “fold binding and uptake, EL4 over B16 cells” value in [9] was 11.7 fold. Moreover, the “fold decrease of MFI with PD-L1-Fc against αPD-1-ABD-PE alone” value in [10] is roughly 25 fold. This molecule displayed a Kd in [11] of 12 nM.

B2: ABD-PE (other)
chain: HHHHHHGGGGSLAEAKVLANRELDKYGVSDFYKRLINKAKTVEGVEALKLHILAALPGGGGSGGGGSGGGGSRHRQPRGWEQLPTGAEFLGDGGDVSFSTRGTQNWTVERLLQAHRQLEERGYVFVGYHGTFLEAAQSIVFGGVRARSQDLDAIWRGFYIAGDPALAYGYAQDQEPDARGRIRNGALLRVYVPRSSLPGFYRTSLTLAAPEAAGEVERLIGHPLPLRLDAITGPEEEGGRLETILGWPLAERTVVIPSAIPTDPRNVGGDLDPSSIPDKEQAISALPDYASQPGKPPREDLK
modifications: Alexa Fluor 647 NHS ester label in the flow cytometry assays (sites not given)
notes: Untargeted control protein without the αPD-1 scFv; also called labeled ABD-PE
In the case of B2, in [12], the binding result is recorded as “no binding (tested: 100 nM)”.

B3: αPD-1-PE (other)
chain: HHHHHHGGGGSEVQLQESGPGLVKPSQSLSLTCSVTGYSITSSYRWNWIRKFPGNCLEWMGYINSAGISNYNPSLKRRISITRDTSKNQFFLQVNSVTTEDAATYYCARSDNMGTTPFTYWGQGTLVTVSSGGGGSGGGGSGGGGSDIVMTQGTLPNPVPSGESVSITCRSSKSLLYSDGKTYLNWYLQRPGQSPQLLIYWMSTRASGVSDRFSGSGSGTDFTLKISGVEAEDVGIYYCQQGLEFPTFGCGTKLELKGGGGSGGGGSGGGGSRHRQPRGWEQLPTGAEFLGDGGDVSFSTRGTQNWTVERLLQAHRQLEERGYVFVGYHGTFLEAAQSIVFGGVRARSQDLDAIWRGFYIAGDPALAYGYAQDQEPDARGRIRNGALLRVYVPRSSLPGFYRTSLTLAAPEAAGEVERLIGHPLPLRLDAITGPEEEGGRLETILGWPLAERTVVIPSAIPTDPRNVGGDLDPSSIPDKEQAISALPDYASQPGKPPREDLK
notes: Control protein without the ABD
Regarding B3, the binding result in the assay with mouse serum albumin and with human serum albumin was “no binding” in each case.

B4: αPD-1 (full IgG) (antibody, V domains shown)
VH: EVQLQESGPGLVKPSQSLSLTCSVTGYSITSSYRWNWIRKFPGNRLEWMGYINSAGISNYNPSLKRRISITRDTSKNQFFLQVNSVTTEDAATYYCARSDNMGTTPFTYWGQGTLVTVSS
VL: DIVMTQGTLPNPVPSGESVSITCRSSKSLLYSDGKTYLNWYLQRPGQSPQLLIYWMSTRASGVSDRFSGSGSGTDFTLKISGVEAEDVGIYYCQQGLEFPTFGGGTKLELK
notes: Rat anti-mouse PD-1 mAb, IgG2a, κ; also called intact αPD-1; αPD-1 IgG
As to B4, in assay [11], the Kd is 3.4 nM.
